The target of experiment [1] is Plasminogen activator inhibitor 1 RNA-binding protein (Homo sapiens) (UniProt Q8NC51). Nature of the experiment: anti-FLAG co-IP LC-MS, exp 3, +Dox.
Experiment [2] has as its target Ribosome-binding protein 1 (Homo sapiens) (UniProt Q9P2E9). Nature of the experiment: anti-FLAG co-IP LC-MS, exp 3, +Dox.

Chain of Ribosome-binding protein 1 (Homo sapiens) (Q9P2E9 whole entry): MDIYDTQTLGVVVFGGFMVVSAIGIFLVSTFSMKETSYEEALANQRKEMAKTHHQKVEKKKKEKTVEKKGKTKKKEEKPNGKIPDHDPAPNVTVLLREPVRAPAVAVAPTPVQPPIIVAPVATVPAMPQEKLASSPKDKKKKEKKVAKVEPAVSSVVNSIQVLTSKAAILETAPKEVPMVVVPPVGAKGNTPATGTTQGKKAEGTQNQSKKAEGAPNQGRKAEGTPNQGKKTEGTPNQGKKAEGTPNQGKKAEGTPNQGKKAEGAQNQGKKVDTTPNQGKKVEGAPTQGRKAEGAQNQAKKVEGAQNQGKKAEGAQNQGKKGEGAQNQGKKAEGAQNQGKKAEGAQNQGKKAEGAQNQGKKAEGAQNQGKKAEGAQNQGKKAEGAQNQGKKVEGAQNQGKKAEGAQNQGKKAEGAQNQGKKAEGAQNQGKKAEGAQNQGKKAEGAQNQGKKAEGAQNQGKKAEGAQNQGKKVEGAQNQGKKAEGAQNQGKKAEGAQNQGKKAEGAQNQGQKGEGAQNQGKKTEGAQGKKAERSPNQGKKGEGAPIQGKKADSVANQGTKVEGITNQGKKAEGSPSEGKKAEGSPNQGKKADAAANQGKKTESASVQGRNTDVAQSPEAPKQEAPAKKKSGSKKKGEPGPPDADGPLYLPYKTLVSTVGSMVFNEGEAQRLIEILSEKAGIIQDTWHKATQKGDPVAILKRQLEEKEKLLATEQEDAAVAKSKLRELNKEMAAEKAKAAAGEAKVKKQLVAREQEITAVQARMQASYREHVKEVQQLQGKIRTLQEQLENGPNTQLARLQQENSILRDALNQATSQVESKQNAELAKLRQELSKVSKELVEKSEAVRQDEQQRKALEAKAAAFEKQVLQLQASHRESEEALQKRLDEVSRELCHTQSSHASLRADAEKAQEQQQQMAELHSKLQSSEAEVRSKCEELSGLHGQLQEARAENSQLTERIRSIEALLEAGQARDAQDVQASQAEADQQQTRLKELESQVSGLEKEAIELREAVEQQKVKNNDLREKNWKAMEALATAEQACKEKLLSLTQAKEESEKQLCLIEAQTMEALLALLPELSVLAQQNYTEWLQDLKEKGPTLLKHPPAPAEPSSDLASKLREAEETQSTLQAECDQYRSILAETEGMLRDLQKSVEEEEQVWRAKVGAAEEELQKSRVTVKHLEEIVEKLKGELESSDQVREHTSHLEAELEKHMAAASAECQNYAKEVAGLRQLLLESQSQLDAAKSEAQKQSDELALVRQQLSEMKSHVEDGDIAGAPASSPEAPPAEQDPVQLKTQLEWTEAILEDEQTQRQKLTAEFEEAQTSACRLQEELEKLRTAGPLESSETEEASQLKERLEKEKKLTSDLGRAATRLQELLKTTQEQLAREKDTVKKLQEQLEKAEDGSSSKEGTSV
Chain of Plasminogen activator inhibitor 1 RNA-binding protein (Homo sapiens) (Q8NC51 2-408 limits assumed): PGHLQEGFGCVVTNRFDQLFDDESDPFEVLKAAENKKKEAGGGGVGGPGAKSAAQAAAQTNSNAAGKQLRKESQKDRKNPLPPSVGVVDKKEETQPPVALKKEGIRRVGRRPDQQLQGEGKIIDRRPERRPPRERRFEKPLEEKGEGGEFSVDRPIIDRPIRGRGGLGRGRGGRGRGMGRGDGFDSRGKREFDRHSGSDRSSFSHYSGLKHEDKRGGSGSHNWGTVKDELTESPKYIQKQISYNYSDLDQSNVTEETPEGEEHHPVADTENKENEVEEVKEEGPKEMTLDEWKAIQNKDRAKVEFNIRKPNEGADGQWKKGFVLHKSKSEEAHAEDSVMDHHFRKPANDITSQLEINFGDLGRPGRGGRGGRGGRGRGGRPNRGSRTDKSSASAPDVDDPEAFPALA

On to i3XFLAG-NLS-CTDaa154-424, for which the PSMs in experiment [1] was determined as 2 PSMs; in experiment [2] it was 24 PSMs.

The record behind these values is patent publication US20250339531A1, “DUX4 POLYPEPTIDES AND NUCLEIC ACIDS FOR TREATING INFLAMMATORY AND AUTOIMMUNE CONDITIONS” (Fred Hutchinson Cancer Center, priority 2021, published 2025).
